In the supplement of paper PMC10567573:

B1: YPEL3 (parent)
chain: SKPKTFQAYLDDCHRRYSCAHCRA

Variants of: B1
Experiment: protein stability index of a GFP-peptide fusion (GPS, HEK-293T) (PSI 1-6); higher = more stable
Settings: c terminus: a fixed tail appended
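Note: lentivirally expressed fusions sorted by FACS into six bins by GFP to DsRed ratio, PSI derived from sequencing read proportions per bin multiplied by bin number.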

Variant	protein stability index
SKPKTFQAYLDDRHRRYSCAHCRA [C13R]	2.19
SKPKTFQAYLDDTHRRYSCAHCRA [C13T]	2.01
SKPKTFQAYLDDDHRRYSCAHCRA [C13D]	1.99
SKPKTFQAYLDDGHRRYSCAHCRA [C13G]	2.07
SKPKTFQAYLDDQHRRYSCAHCRA [C13Q]	2.48
SKPKTFQAYLDDKHRRYSCAHCRA [C13K]	2.69
SKPKTFQAYLDDHHRRYSCAHCRA [C13H]	1.75
SKPKTFQAYLDDYHRRYSCAHCRA [C13Y]	2.44
SKPKTAQAYLDDCHRRYSCAHCRA [F6A]	2.95
SKPKTRQAYLDDCHRRYSCAHCRA [F6R]	3.21
SKPKTWQAYLDDCHRRYSCAHCRA [F6W]	2.44
SKPKTNQAYLDDCHRRYSCAHCRA [F6N]	3.15
SKPKTHQAYLDDCHRRYSCAHCRA [F6H]	2.71
SKPKTCQAYLDDCHRRYSCAHCRA [F6C]	2.84
SKPKTKQAYLDDCHRRYSCAHCRA [F6K]	3.23
SKPKTGQAYLDDCHRRYSCAHCRA [F6G]	3.57
SKPKTSQAYLDDCHRRYSCAHCRA [F6S]	3.3
GKPKTFQAYLDDCHRRYSCAHCRA [S1G]	2.07
PKPKTFQAYLDDCHRRYSCAHCRA [S1P]	2.67
KKPKTFQAYLDDCHRRYSCAHCRA [S1K]	1.98
QKPKTFQAYLDDCHRRYSCAHCRA [S1Q]	2.08
EKPKTFQAYLDDCHRRYSCAHCRA [S1E]	1.52
RKPKTFQAYLDDCHRRYSCAHCRA [S1R]	1.92
CKPKTFQAYLDDCHRRYSCAHCRA [S1C]	2.29

Variant	protein stability index
SKPDTFQAYLDDCHRRYSCAHCRA [K4D]	1.86
SKPETFQAYLDDCHRRYSCAHCRA [K4E]	2.09
SKPFTFQAYLDDCHRRYSCAHCRA [K4F]	1.72
SKPQTFQAYLDDCHRRYSCAHCRA [K4Q]	1.8
SKPITFQAYLDDCHRRYSCAHCRA [K4I]	1.6
SKPPTFQAYLDDCHRRYSCAHCRA [K4P]	1.9
SKPGTFQAYLDDCHRRYSCAHCRA [K4G]	2.71
SKPSTFQAYLDDCHRRYSCAHCRA [K4S]	2.5
SKPNTFQAYLDDCHRRYSCAHCRA [K4N]	1.87
SKPKHFQAYLDDCHRRYSCAHCRA [T5H]	2.57
SKPKNFQAYLDDCHRRYSCAHCRA [T5N]	2.53
SKPKYFQAYLDDCHRRYSCAHCRA [T5Y]	1.97
SKPKCFQAYLDDCHRRYSCAHCRA [T5C]	2.33
SKPKIFQAYLDDCHRRYSCAHCRA [T5I]	2.75
SKPKVFQAYLDDCHRRYSCAHCRA [T5V]	2.05
SKPKDFQAYLDDCHRRYSCAHCRA [T5D]	2.94
SKPKGFQAYLDDCHRRYSCAHCRA [T5G]	2.11
SKPKPFQAYLDDCHRRYSCAHCRA [T5P]	2.43
SKPKTFQAYLDDCHRRYSQAHCRA [C19Q]	2.53
SKPKTFQAYLDDCHRRYSHAHCRA [C19H]	2.96
SKPKTFQAYLDDCHRRYSMAHCRA [C19M]	1.63
SKPKTFQAYLDDCHRRYSSAHCRA [C19S]	2.87
SKPKTFQAYLDDCHRRYSTAHCRA [C19T]	2.44
SKPKTFQAYLDDCHRRYSEAHCRA [C19E]	3.18

Variant	protein stability index
SKPKTFQAYLDDCHRRYSIAHCRA [C19I]	2.33
SKPKTFQKYLDDCHRRYSCAHCRA [A8K]	2.31
SKPKTFQWYLDDCHRRYSCAHCRA [A8W]	2.09
SKPKTFQSYLDDCHRRYSCAHCRA [A8S]	1.82
SKPKTFQTYLDDCHRRYSCAHCRA [A8T]	2.1
SKPKTFQLYLDDCHRRYSCAHCRA [A8L]	2.4
SKPKTFQCYLDDCHRRYSCAHCRA [A8C]	2.32
SKPKTFQMYLDDCHRRYSCAHCRA [A8M]	1.66
SKPKTFQFYLDDCHRRYSCAHCRA [A8F]	1.78
SKPKTFSAYLDDCHRRYSCAHCRA [Q7S]	1.89
SKPKTFYAYLDDCHRRYSCAHCRA [Q7Y]	1.85
SKPKTFKAYLDDCHRRYSCAHCRA [Q7K]	2.65
SKPKTFRAYLDDCHRRYSCAHCRA [Q7R]	2.02
SKPKTFMAYLDDCHRRYSCAHCRA [Q7M]	1.8
SKPKTFTAYLDDCHRRYSCAHCRA [Q7T]	1.93
SKPKTFAAYLDDCHRRYSCAHCRA [Q7A]	2.39
SKPKTFPAYLDDCHRRYSCAHCRA [Q7P]	2.8
SKPKTFQAVLDDCHRRYSCAHCRA [Y9V]	2.41
SKPKTFQAHLDDCHRRYSCAHCRA [Y9H]	1.88
SKPKTFQAFLDDCHRRYSCAHCRA [Y9F]	2.67
SKPKTFQALLDDCHRRYSCAHCRA [Y9L]	1.96
SKPKTFQAWLDDCHRRYSCAHCRA [Y9W]	1.93
SKPKTFQARLDDCHRRYSCAHCRA [Y9R]	1.94
SKPKTFQAILDDCHRRYSCAHCRA [Y9I]	2

Variant	protein stability index
SKPKTFQAELDDCHRRYSCAHCRA [Y9E]	3
SKPKTFQACLDDCHRRYSCAHCRA [Y9C]	2.33
SKPKTFQAPLDDCHRRYSCAHCRA [Y9P]	3.08
SKPKTFQAYHDDCHRRYSCAHCRA [L10H]	3.32
SKPKTFQAYADDCHRRYSCAHCRA [L10A]	2.54
SKPKTFQAYQDDCHRRYSCAHCRA [L10Q]	2.48
SKPKTFQAYCDDCHRRYSCAHCRA [L10C]	3.6
SKPKTFQAYGDDCHRRYSCAHCRA [L10G]	2.79
SKPKTFQAYMDDCHRRYSCAHCRA [L10M]	1.75
SKPKTFQAYYDDCHRRYSCAHCRA [L10Y]	1.97
SKPKTFQAYNDDCHRRYSCAHCRA [L10N]	2.62
SKPKTFQAYIDDCHRRYSCAHCRA [L10I]	2.41
SKPKTFQAYLDDCERRYSCAHCRA [H14E]	1.56
SKPKTFQAYLDDCTRRYSCAHCRA [H14T]	1.8
SKPKTFQAYLDDCQRRYSCAHCRA [H14Q]	2.23
SKPKTFQAYLDDCNRRYSCAHCRA [H14N]	2.19
SKPKTFQAYLDDCGRRYSCAHCRA [H14G]	3.08
SKPKTFQAYLDDCLRRYSCAHCRA [H14L]	1.82
SKPKTFQAYLDDCWRRYSCAHCRA [H14W]	3.12
SKPKTFQAYLDDCHRRYSCAHCRF [A24F]	2.59
SKPKTFQAYLDDCHRRYSCAHCRT [A24T]	1.54
SKPKTFQAYLDDCHRRYSCAHCRS [A24S]	1.54
SKPKTFQAYLDDCHRRYSCAHCRH [A24H]	1.85
SKPKTFQAYLDDCHRRYSCAHCRE [A24E]	1.71

Variant	protein stability index
SKPKTFQAYLDDCHRRYSCAHCRQ [A24Q]	2.59
SKPKTFQAYLDDCHRRYSCAHCRW [A24W]	2.39
SKPKTFQAYLDDCHRRYSCAHCRY [A24Y]	2.86
SKPKTFQAYLDDCHRRYSCAHCRC [A24C]	1.83
SKPKTFQAYLDDCHRRYGCAHCRA [S18G]	2.5
SKPKTFQAYLDDCHRRYQCAHCRA [S18Q]	1.86
SKPKTFQAYLDDCHRRYFCAHCRA [S18F]	1.91
SKPKTFQAYLDDCHRRYNCAHCRA [S18N]	2.06
SKPKTFQAYLDDCHRRYLCAHCRA [S18L]	2.14
SKPKTFQAYLDDCHRRYWCAHCRA [S18W]	1.52
SKPKTFQAYLDDCHRRYECAHCRA [S18E]	1.52
SKPKTFQAYLDDCHRRYPCAHCRA [S18P]	2.15
SKPKTFQAYLDTCHRRYSCAHCRA [D12T]	2.35
SKPKTFQAYLDVCHRRYSCAHCRA [D12V]	1.96
SKPKTFQAYLDGCHRRYSCAHCRA [D12G]	2.64
SKPKTFQAYLDMCHRRYSCAHCRA [D12M]	2.69
SKPKTFQAYLDKCHRRYSCAHCRA [D12K]	2.9
SKPKTFQAYLDHCHRRYSCAHCRA [D12H]	2.35
SKPKTFQAYLDDCHCRYSCAHCRA [R15C]	2.72
SKPKTFQAYLDDCHMRYSCAHCRA [R15M]	1.68
SKPKTFQAYLDDCHWRYSCAHCRA [R15W]	2.2
SKPKTFQAYLDDCHPRYSCAHCRA [R15P]	1.82
SKPKTFQAYLDDCHNRYSCAHCRA [R15N]	2.79
SKPKTFQAYLDDCHSRYSCAHCRA [R15S]	1.61

Variant	protein stability index
SKPKTFQAYLDDCHARYSCAHCRA [R15A]	2.1
SKPKTFQAYLDDCHRNYSCAHCRA [R16N]	1.45
SKPKTFQAYLDDCHREYSCAHCRA [R16E]	3.04
SKPKTFQAYLDDCHRTYSCAHCRA [R16T]	2.46
SKPKTFQAYLDDCHRIYSCAHCRA [R16I]	1.55
SKPKTFQAYLDDCHRHYSCAHCRA [R16H]	2.3
SKPKTFQAYLDDCHRVYSCAHCRA [R16V]	2.34
SKPKTFQAYLDDCHRMYSCAHCRA [R16M]	1.88
SKPKTFQAYLPDCHRRYSCAHCRA [D11P]	2.54
SKPKTFQAYLNDCHRRYSCAHCRA [D11N]	2.6
SKPKTFQAYLRDCHRRYSCAHCRA [D11R]	1.9
SKPKTFQAYLLDCHRRYSCAHCRA [D11L]	2.11
SKPKTFQAYLFDCHRRYSCAHCRA [D11F]	3.03
SKPKTFQAYLGDCHRRYSCAHCRA [D11G]	1.97
SKPKTFQAYLSDCHRRYSCAHCRA [D11S]	1.9
SKPKTFQAYLCDCHRRYSCAHCRA [D11C]	3.36
SKPKTFQAYLIDCHRRYSCAHCRA [D11I]	2.92
SKPKTFQAYLDDCHRRYSCAHVRA [C22V]	2.64
SKPKTFQAYLDDCHRRYSCAHDRA [C22D]	2.94
SKPKTFQAYLDDCHRRYSCAHNRA [C22N]	2.45
SKPKTFQAYLDDCHRRYSCAHGRA [C22G]	2.75
SKPKTFQAYLDDCHRRYSCAHLRA [C22L]	2.37
SKPKTFQAYLDDCHRRSSCAHCRA [Y17S]	1.89
SKPKTFQAYLDDCHRRISCAHCRA [Y17I]	2.13

Variant	protein stability index
SKPKTFQAYLDDCHRRRSCAHCRA [Y17R]	2.79
SKPKTFQAYLDDCHRRNSCAHCRA [Y17N]	1.8
SKPKTFQAYLDDCHRRGSCAHCRA [Y17G]	2.02
SKPKTFQAYLDDCHRRFSCAHCRA [Y17F]	3.01
SKPKTFQAYLDDCHRRLSCAHCRA [Y17L]	2
SKPKTFQAYLDDCHRRVSCAHCRA [Y17V]	1.39
SKPKTFQAYLDDCHRRPSCAHCRA [Y17P]	1.93
SIPKTFQAYLDDCHRRYSCAHCRA [K2I]	1.63
SWPKTFQAYLDDCHRRYSCAHCRA [K2W]	2.58
SQPKTFQAYLDDCHRRYSCAHCRA [K2Q]	2.31
SPPKTFQAYLDDCHRRYSCAHCRA [K2P]	1.95
SFPKTFQAYLDDCHRRYSCAHCRA [K2F]	1.88
STPKTFQAYLDDCHRRYSCAHCRA [K2T]	2.19
SDPKTFQAYLDDCHRRYSCAHCRA [K2D]	2.89
SRPKTFQAYLDDCHRRYSCAHCRA [K2R]	1.89
SKMKTFQAYLDDCHRRYSCAHCRA [P3M]	3.01
SKNKTFQAYLDDCHRRYSCAHCRA [P3N]	2.26
SKQKTFQAYLDDCHRRYSCAHCRA [P3Q]	1.97
SKVKTFQAYLDDCHRRYSCAHCRA [P3V]	2
SKEKTFQAYLDDCHRRYSCAHCRA [P3E]	2.31
SKDKTFQAYLDDCHRRYSCAHCRA [P3D]	2.11
SKLKTFQAYLDDCHRRYSCAHCRA [P3L]	2.13
SKHKTFQAYLDDCHRRYSCAHCRA [P3H]	1.54
SKKKTFQAYLDDCHRRYSCAHCRA [P3K]	2.29

Variant	protein stability index
SKAKTFQAYLDDCHRRYSCAHCRA [P3A]	1.66
SKIKTFQAYLDDCHRRYSCAHCRA [P3I]	2.19
SKPKTFQAYLDDCHRRYSCSHCRA [A20S]	1.46
SKPKTFQAYLDDCHRRYSCIHCRA [A20I]	1.89
SKPKTFQAYLDDCHRRYSCLHCRA [A20L]	1.64
SKPKTFQAYLDDCHRRYSCYHCRA [A20Y]	2.16
SKPKTFQAYLDDCHRRYSCQHCRA [A20Q]	1.71
SKPKTFQAYLDDCHRRYSCAHCIA [R23I]	3.07
SKPKTFQAYLDDCHRRYSCAHCWA [R23W]	2.08
SKPKTFQAYLDDCHRRYSCAHCSA [R23S]	3.52
SKPKTFQAYLDDCHRRYSCAHCCA [R23C]	1.24
SKPKTFQAYLDDCHRRYSCAWCRA [H21W]	1.65
SKPKTFQAYLDDCHRRYSCASCRA [H21S]	2.19
SKPKTFQAYLDDCHRRYSCAYCRA [H21Y]	1.48
SKPKTFQAYLDDCHRRYSCAKCRA [H21K]	2.37
SKPKTFQAYLDDCHRRYSCAVCRA [H21V]	1.79
SKPKTFQAYLDDCHRRYSCAPCRA [H21P]	1.9
SKPKTFQAYLDDCHRRYSCADCRA [H21D]	2.18
SKPKTFQAYLDDCHRRYSCAMCRA [H21M]	1.18
SKPKTFQAYLDDCHRRYSCAICRA [H21I]	2.52
